Target: Recombinant SARS-CoV-2 S trimer (SARS-CoV-2) (UniProt P0DTC2)
Test: MST

Substance | Kd [nM]
Recombinant L-SIGN/CD299 (from UniProt Q9H2X3 1-399) (receptor) | 43.7
Recombinant DC-SIGN/CD209 (from UniProt Q9NNX6 1-404) (receptor) | 28.8

— article PMC8582233
